According to patent US7910111:

Legend:
[1] = target: Recombinant RGS-(His)6-NSF (N-ethylmaleimide sensitive factor), wild-type (UniProt P18708); assay: cell-based or functional assay
[2] = target: Endogenous NSF of human aortic endothelial cells (HAEC) (human) (UniProt P46459); assay: cell-based or functional assay

Recombinant RGS-(His)6-NSF (N-ethylmaleimide sensitive factor), wild-type, sequence (P18708 other isoform, or with tags, fused parts or gaps limits assumed): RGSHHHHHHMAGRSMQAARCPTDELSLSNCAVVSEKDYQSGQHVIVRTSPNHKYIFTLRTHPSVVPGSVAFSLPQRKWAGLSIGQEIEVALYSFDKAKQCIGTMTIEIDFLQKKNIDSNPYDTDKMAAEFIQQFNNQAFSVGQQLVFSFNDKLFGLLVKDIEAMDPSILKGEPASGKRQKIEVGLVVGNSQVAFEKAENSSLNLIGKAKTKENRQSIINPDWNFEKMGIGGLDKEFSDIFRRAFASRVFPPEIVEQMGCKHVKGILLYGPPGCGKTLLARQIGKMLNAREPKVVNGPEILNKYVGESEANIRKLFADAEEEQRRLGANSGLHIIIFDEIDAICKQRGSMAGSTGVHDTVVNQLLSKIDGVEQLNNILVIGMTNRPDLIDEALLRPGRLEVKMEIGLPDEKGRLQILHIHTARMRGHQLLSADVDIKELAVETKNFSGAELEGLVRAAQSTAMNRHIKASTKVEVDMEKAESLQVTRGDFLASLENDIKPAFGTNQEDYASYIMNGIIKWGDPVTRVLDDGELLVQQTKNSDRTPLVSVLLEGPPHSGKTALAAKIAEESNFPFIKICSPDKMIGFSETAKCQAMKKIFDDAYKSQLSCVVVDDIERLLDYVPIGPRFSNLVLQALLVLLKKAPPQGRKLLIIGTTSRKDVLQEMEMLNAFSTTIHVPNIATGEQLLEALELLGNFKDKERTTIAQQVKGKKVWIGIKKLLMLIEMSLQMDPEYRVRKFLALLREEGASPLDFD

## TAT-NSF81 (peptide)
[1]
  IC50% of NSF ATPase activity: 1 to 10 µM
[2]
  IC50% of endothelial exocytosis (vWF release): 1 to 10 µM
